To fix the notation:
B1: hMAB-A (2.2) (antibody, human IgG1, kappa, V domains shown)
VH: EVQLVESGGGLVKPGGSLRLSCAASGFTFSSYWMHWVRQAPGKGLEWVGEIIPIFGHTNYNEKFKSRFTISLDNSKNTLYLQMGSLRAEDTAVYYCARGGYYYYGSRDYFDYWGQGTTVTVSS
VL: DIVMTQSPDSLAVSLGERATISCKASQSVDYSGDSYMNWYQQKPGQPPKLLIYAASDLESGIPARFSGSGSGTDFTLTISSLEPEDFATYYCQQSHEDPFTFGQGTKLEIKR
B2: hMAB-A (2D.2) (antibody, V domains shown)
VH: B1 VH with G105T, S106G, R107K, D108G, Y109V, F110L
VL: DIVMTQSPDSLAVSLGERATISCKASQSVDYSGDSYMNWYQQKPGQPPKLLIYAASDLESGIPARFSGSGSGTDFTLTISSLEPEDFATYYCQQSHEDPFTFGQGTKLEIK
B3: hMAB-A (2C.2) (antibody, human IgG1, kappa, V domains shown)
VH: B1 VH with G105P, S106R, R107F, D108G, Y109W, F110L
VL: B1 VL
B4: hMAB-A (2B.2) (antibody, V domains shown)
VH: B1 VH with G105I, S106G, R107K, D108G, Y109V, F110L
VL: B2 VL

Where a chain is given by its changes, count along the chain named. A value given as a limit tells only on which side of the number the result lay.

The test deals with His peptide-tagged soluble cynoADAM9 (cynoADAM9-His) (cynomolgus monkey). Briefly: SPR (BIACORE), antibody captured, cynoADAM9-His in flow. On the technique in general: In SPR one partner is held on a chip, and binding of the other changes the refractive index at the surface.
Turning to B1, the dissociation constant Kd stood at 110 nM, the koff is 0.022 s⁻¹ and the kon was found to be 200000 M⁻¹ s⁻¹.
The corresponding values for B2 are 0.7 nM, 0.0003 s⁻¹ and 420000 M⁻¹ s⁻¹.
Take B3: the Kd was < 0.3 nM, the koff is < 1e-05 s⁻¹ and the kon is 350000 M⁻¹ s⁻¹.
The corresponding values for B4 are 0.2 nM, 6.6e-05 s⁻¹ and 340000 M⁻¹ s⁻¹.

As usually defined, the Kd is a measure of binding affinity in units of concentration. High values mean a looser complex, low ones a tighter complex. For orientation: koff means the rate constant with which the complex falls apart. Read a high koff as a short-lived complex. As usually defined, the kon is a measure of how fast the partners come together.

(Values after US20210388102A1.)
